These results are taken from patent publication US20110097739A1.

The target of the test is HCEC protein fraction. Kind of test: ELISA on the coated protein fraction, lysate treated or not with neuraminidase.

The substance “FC5 llama single-domain antibody (sdAb), expressed in fusion with His5 and c-myc tags (VHH)” returned a reduction of binding after neuraminidase treatment of the lysate of 50%.
